# Measurements as given in patent US20210238302A1, “HIGH AFFINITY MONOCLONAL ANTIBODIES (MABS) AGAINST CELL SURFACE EXPRESSED HUMAN CARBONIC ANHYDRASE IX (HCA-IX), AND USES THEREOF” (NATIONAL RESEARCH COUNCIL OF CANADA, priority 2018, published 2021).
# “And” between values parts separate entries of the source, which are not always exact repeats. Equal values may be shown once. “Also recorded” adds a separate entry of the source. Read-outs that look alike come from different tables or passages of the source.
# How the values were obtained:
# rhCA-IX ECD [1] = target: T1, rhCA-IX ECD (Homo sapiens, UniProt Q16790); assay: Reverse Phase Protein Array (RPPA); type: binding
# [2] = Differential Scanning Calorimetry (DSC) thermostability; type: physicochemical; details: DSC 25° C. to 100° C., scan rate 90° C./hour; versus Cetuximab
# Method: (scan rate 90° C./hour). The therapeutic anti-EGFR Ab Cetuximab, which has been proven to be a very stable under these conditions, was used as control.
# rhCA-IX ECD [3] = target: T1, rhCA-IX ECD; type: biochemical
# Description: To determine whether these mAbs can inhibit the enzyme activity of the rhCA-IX ECD protein, we used an activity assay in which 4-Nitrophenyl acetate (4-NPA) is used as a substrate. […]
# rmCA-IX = rmCA-IX (Mus musculus, UniProt Q8VHB5); assay: Cross-reactivity determination by SPR; type: binding, murine
# Description: (§1) hCA-IX is one of several hCAs that have been identified to date (see FIG. 1). […] In contrast to hCA-IX the expression pattern of hCA-XII is much more widespread and not as cancer specific as hCA-IX.
# Cell viability = type: cell-based
# [4] = target: rhCA-IX ECD monomer or dimer (Homo sapiens, UniProt Q16790)
# rhCA-XIV = rhCA-XIV (Homo sapiens, UniProt Q9ULX7); assay: Cross-reactivity determination by SPR; type: binding
# Description: as §1
# rhCA-IV = rhCA-IV (Homo sapiens, UniProt P22748); assay: Cross-reactivity determination by SPR; type: binding
# Description: as §1
# rhCA-XII = rhCA-XII (Homo sapiens, UniProt O43570); assay: Cross-reactivity determination by SPR; type: binding
# Description: as §1
# hCA-IX ECD fragments = assay: Epitope mapping by Yeast Surface Display (whole yeast cell ELISA); type: binding, human; parameters: key: −: no binding; +: binding
# Method: Yeast Surface Display (YSD; developed by the Wittrup lab) is used for presenting properly folded (ensured by the “quality-control” processes of the secretory pathway of the yeast) antigen fragments on the yeast cell surface through covalent linkage (FIG. 15A). […] The epitope mapping of the mAbs was performed using a whole yeast cell ELISA protocol. […] These experiments were performed on native and denatured yeast cells, where in both cases binding of each mAb was normalized to the anti-MYC signal. The ratio of each normalized anti-CA-IX mAb signal of native versus denatured hCA-IX peptide is thus indicative of the conformational nature of the mAb binding epitope. In the native hCA-IX experiments the commercial M75 mAb was used as a positive control; the epitope of this mAb is known (Zavada et al., 2000) and is located in hCA-IX's PG domain.
# rhCA-IX ECD [5] = target: T1, rhCA-IX ECD; assay: Western blot of non-purified mAbs on purified CA-IX ECD antigen; type: binding; details: undiluted CM; non-reducing and reducing conditions
# Description: Anti-hCA-IX mAb 10F2 is shown as a positive control.
# SK-RC-52 cells = assay: Internalization of pHAb dye labeled mAbs; type: cell-based, human; details: antibody-pHAb dye conjugates, 37° C., 24 h
# Description: In addition, we also evaluated the internalization potential of these mAbs with the thought of using these enzyme-inhibiting mAbs to bring a toxic pay-load into cancer cells. For this, both mAbs, in addition to a negative control IgG, were labeled with a pH sensitive reactive dye (pHAb; Promega). Upon receptor-mediated internalization, these antibody-pHAb Dye conjugates traffick to the endosome and lysosomal vesicles where pH is acidic, causing the pHAb dye to fluoresce. CA-IX expressing SK-RC-52 expressing cells were incubated with these antibody-pHAb dye conjugates (10 μg/mL) and incubated at 37° C. (5% CO2, humidified environment) for 24 h (FIG. 18A) or coated with various concentrations of the conjugates for 30 min at 4° C., washed, and then transferred to 37° C. (5% CO2, humidified environment) for 24 h (FIG. 18B).
# [6] = target: T2, low hCA-IX expressing SK-RC-59 cells (Homo sapiens, UniProt Q16790); assay: Flow cytometry binding, SK-RC-59 cells; type: cell-based; details: SK-RC-59 (low hCA-IX)
# T2 construct: the non-transfected human renal tumor SK-RC-59 and SK-RC-52 cell lines; endogenous in cells; host or cells: SK-RC-52 (high hCA-IX), SK-RC-59 (low hCA-IX)
# Method: These cell lines have been used in the literature for the screening of scFv Abs for binding to hCA-IX (Xu et al., 2011). Western blot analysis of these cell lines under reducing and non-reducing conditions (FIG. 8) confirmed the expression of hCA-IX in the SK-RC-52 cell line (indicated with a star), whereas no hCA-IX could be detected in the SK-RC-59 cell line. Equal protein quantities were loaded (BCA protein assay) which was confirmed by an actin blot.
# Flow cytometry: mAbs were evaluated in a flow cytometry experiment using the SK-RC-59 and SK-RC-52 cell lines. As controls a commercially available mAb (R&D, Clone #303123, Cat #MAB2188) and the M75 mAb (generously supplied by Dr E Oosterwijk, Radboud University Nijmegen, The Netherlands) were used. Experiments were plotted per cell line (FIG. 9) using a double Y-axis (left Y-axis, % live cells, closed squares; right Y-axis, mean fluorescence intensity of the live population, closed circles; X-axis, experimental groups).
# [7] = hybridoma-derived mAb, 1 μM rhCA-IX ECD dimer, mAb:rhCA-IX ECD 4:1
# [8] = recombinant mAbs, rhCA-IX ECD monomer
# Chain of rmCA-IX (Q8VHB5 32-437): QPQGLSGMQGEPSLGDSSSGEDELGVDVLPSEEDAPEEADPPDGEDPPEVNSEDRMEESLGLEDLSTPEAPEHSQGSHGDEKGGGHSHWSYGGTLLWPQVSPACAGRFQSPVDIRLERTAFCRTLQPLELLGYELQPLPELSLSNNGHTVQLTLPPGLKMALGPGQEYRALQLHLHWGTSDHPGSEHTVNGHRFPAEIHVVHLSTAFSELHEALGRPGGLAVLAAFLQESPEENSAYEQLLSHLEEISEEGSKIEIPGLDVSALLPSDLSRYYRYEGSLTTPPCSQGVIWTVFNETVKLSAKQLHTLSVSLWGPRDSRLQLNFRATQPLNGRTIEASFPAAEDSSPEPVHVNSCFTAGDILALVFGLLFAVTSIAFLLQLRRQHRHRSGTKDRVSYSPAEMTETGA
# Chain of rhCA-XII (O43570 25-354): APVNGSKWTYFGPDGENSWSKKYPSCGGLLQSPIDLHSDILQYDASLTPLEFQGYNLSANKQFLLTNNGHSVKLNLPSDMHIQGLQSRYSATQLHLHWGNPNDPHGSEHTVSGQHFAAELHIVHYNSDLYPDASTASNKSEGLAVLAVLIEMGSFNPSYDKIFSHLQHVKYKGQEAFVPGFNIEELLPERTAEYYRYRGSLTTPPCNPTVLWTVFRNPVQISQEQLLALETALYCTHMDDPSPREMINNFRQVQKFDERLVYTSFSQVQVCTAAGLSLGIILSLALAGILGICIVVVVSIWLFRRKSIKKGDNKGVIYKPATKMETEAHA
# Chain of rhCA-XIV (Q9ULX7 16-337): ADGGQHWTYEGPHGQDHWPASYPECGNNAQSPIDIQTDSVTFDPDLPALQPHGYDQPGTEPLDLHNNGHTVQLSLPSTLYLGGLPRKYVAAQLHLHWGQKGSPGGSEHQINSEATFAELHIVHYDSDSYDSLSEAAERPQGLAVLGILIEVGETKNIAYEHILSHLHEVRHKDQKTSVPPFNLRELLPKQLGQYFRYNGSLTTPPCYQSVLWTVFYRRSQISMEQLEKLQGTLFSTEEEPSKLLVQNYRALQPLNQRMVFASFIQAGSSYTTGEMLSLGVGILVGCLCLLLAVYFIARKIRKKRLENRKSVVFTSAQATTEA
# Chain of rhCA-IV (P22748 19-284): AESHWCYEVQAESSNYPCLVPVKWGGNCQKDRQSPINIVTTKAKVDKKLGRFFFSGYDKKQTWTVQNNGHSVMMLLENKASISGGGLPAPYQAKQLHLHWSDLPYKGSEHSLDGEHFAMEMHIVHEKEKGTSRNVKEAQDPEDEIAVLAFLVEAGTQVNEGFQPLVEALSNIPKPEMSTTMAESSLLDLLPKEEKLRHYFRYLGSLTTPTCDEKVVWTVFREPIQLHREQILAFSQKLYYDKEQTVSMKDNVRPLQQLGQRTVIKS
molecule,measurement,setting,value
"9B6: mouse IgG2b monoclonal antibody inhibiting hCA-IX catalytic activity; SEQ ID NO.14 and 18; hybridoma-derived and recombinant (SEQ ID NO. 24 and 25) (antibody, V domains shown) VL: DIVLTQSPSSLAVSLGQRATISCKASQSVDYDGNSYMNWFQQKPGQPPKLLIYEASSLESGIPARISGSGSGTDFTLNIHPVEEEDAATYYCQQSYEGPYTFGGGTKLEIK VH: QVQLQQPGAELVKPGASVKLSCKASGYIFTTKWINWVKQRPGQGLEWIGNIYPGSSNTYYNEKFKNKATLTVDKSSNTAHLQLSSLTSEDSAVYYCARGIANWGQGTPVTVSA",Antigen in protein mixture Denatured (D),rhCA-IX ECD [1],1.74
same,Antigen in protein mixture Native (C),rhCA-IX ECD [1],5.79
same,mAb binding specificity,rhCA-IX ECD [1],rhCA-IX
same,preference for native or denatured rhCA-IX ECD,rhCA-IX ECD [1],slightly increased preference for the denatured protein
same,Ratio (A)/(B) (Possibly epitope related),rhCA-IX ECD [1]; native/denatured purified antigen,0.68
same,Purified Antigen Denatured (B),rhCA-IX ECD [1]; non-purified hybridoma mAb,21.55
same,Purified Antigen Native (A),rhCA-IX ECD [1]; non-purified hybridoma mAb,14.75
same,thermostability,[2],slightly less stable than Cetuximab
same,% rhCA-IX ECD Inhibition,rhCA-IX ECD [3],42.59%
same,% rhCA-IX ECD Activity,rhCA-IX ECD [3]; [7],59.25%
same,% rhCA-IX ECD Inhibition,rhCA-IX ECD [3]; [7],40% and 40.75%
same,Comments,"rhCA-IX ECD [3]; hybridoma-derived mAb, mAb:rhCA-IX ECD 4:1",Inhibition
same,rhCA-IX ECD enzyme activity inhibition,"rhCA-IX ECD [3]; recombinant mAbs and Fabs, 0.5 μM each, rhCA-IX ECD 0.5 μM dimer, 4-NPA",40% and 28%
same,Data1,"rhCA-IX ECD [3]; replicate 1 of % rhCA-IX ECD activity, hybridoma-derived mAb, mAb:rhCA-IX ECD 4:1",59.25
same,Data2,"rhCA-IX ECD [3]; replicate 2 of % rhCA-IX ECD activity, hybridoma-derived mAb, mAb:rhCA-IX ECD 4:1",55.57
same,SPR binding (cross-reactivity),rmCA-IX,no interaction was detected
same,reduction of cell viability,Cell viability,active in reducing cell viability
same,competition between 4A2 and 9B6 for binding,"[4]; hybridoma-derived mAbs, rhCA-IX ECD monomer or dimer",do not compete
same,competition between 4A2 and 9B6 for binding,[4]; [8],do not compete for binding to hCA-IX
same,competition with cG250 for binding to hCA-IX,[4]; [8],neither the 9B6 nor the 4A2 mAb competes with cG250
same,SPR binding (cross-reactivity),rhCA-XIV,no interaction was detected
same,SPR binding (cross-reactivity),rhCA-IV,no interaction was detected
same,SPR binding (cross-reactivity),rhCA-XII,no interaction was detected
same,Anti-CA-IX Ab binding intensity (normalized on CA-IX_MYC expression on cells),"hCA-IX ECD fragments; Denatured CA-IX protein, EBY100, No-plasmid, Strain Ctrl, Neg Ctrl (PNL6 series)",−
same,Anti-CA-IX Ab binding intensity (normalized on CA-IX_MYC expression on cells),"hCA-IX ECD fragments; Denatured CA-IX protein, EBY100, No-plasmid, Strain Ctrl, Neg Ctrl (PNL200 series)",−
same,Anti-CA-IX Ab binding intensity (normalized on CA-IX_MYC expression on cells),"hCA-IX ECD fragments; Denatured CA-IX protein, clone 1A, PNL6, Aga2-HA-CA9-MYC, fragment 1, aa 52-111, PG",−
same,Anti-CA-IX Ab binding intensity (normalized on CA-IX_MYC expression on cells),"hCA-IX ECD fragments; Denatured CA-IX protein, clone 2B, PNL6, Aga2-HA-CA9-MYC, fragment 2, aa 38-136, +PG+",−
same,Anti-CA-IX Ab binding intensity (normalized on CA-IX_MYC expression on cells),"hCA-IX ECD fragments; Denatured CA-IX protein, clone 3A, PNL6, Aga2-HA-CA9-MYC, fragment 3, aa 1-136, SP+PG+",−
same,Anti-CA-IX Ab binding intensity (normalized on CA-IX_MYC expression on cells),"hCA-IX ECD fragments; Denatured CA-IX protein, clone 11B, PNL6, Aga2-HA-X-MYC, Plasmid Ctrl, Neg Ctrl",−
same,Anti-CA-IX Ab binding intensity (normalized on CA-IX_MYC expression on cells),"hCA-IX ECD fragments; Denatured CA-IX protein, clone 12B, PNL200, CA9-Aga2-MYC, fragment 1, aa 52-111, PG",−
same,Anti-CA-IX Ab binding intensity (normalized on CA-IX_MYC expression on cells),"hCA-IX ECD fragments; Denatured CA-IX protein, clone 13A, PNL200, CA9-Aga2-MYC, fragment 2, aa 38-136, +PG+",−
same,Anti-CA-IX Ab binding intensity (normalized on CA-IX_MYC expression on cells),"hCA-IX ECD fragments; Denatured CA-IX protein, clone 14A, PNL200, CA9-Aga2-MYC, fragment 3, aa 1-136, SP+PG+",−
same,Anti-CA-IX Ab binding intensity (normalized on CA-IX_MYC expression on cells),"hCA-IX ECD fragments; Denatured CA-IX protein, clone 22A, PNL200, X-Aga2-MYC, Plasmid Ctrl, Neg Ctrl",−
same,Anti-CA-IX Ab binding intensity (normalized on CA-IX_MYC expression on cells),"hCA-IX ECD fragments; Native CA-IX protein, EBY100, No-plasmid, Strain Ctrl, Neg Ctrl (PNL6 series)",−
same,Anti-CA-IX Ab binding intensity (normalized on CA-IX_MYC expression on cells),"hCA-IX ECD fragments; Native CA-IX protein, EBY100, No-plasmid, Strain Ctrl, Neg Ctrl (PNL200 series)",−
same,Anti-CA-IX Ab binding intensity (normalized on CA-IX_MYC expression on cells),"hCA-IX ECD fragments; Native CA-IX protein, clone 1A, PNL6, Aga2-HA-CA9-MYC, fragment 1, aa 52-111, PG",−
same,Anti-CA-IX Ab binding intensity (normalized on CA-IX_MYC expression on cells),"hCA-IX ECD fragments; Native CA-IX protein, clone 2B, PNL6, Aga2-HA-CA9-MYC, fragment 2, aa 38-136, +PG+",−
same,Anti-CA-IX Ab binding intensity (normalized on CA-IX_MYC expression on cells),"hCA-IX ECD fragments; Native CA-IX protein, clone 3A, PNL6, Aga2-HA-CA9-MYC, fragment 3, aa 1-136, SP+PG+",−
same,Anti-CA-IX Ab binding intensity (normalized on CA-IX_MYC expression on cells),"hCA-IX ECD fragments; Native CA-IX protein, clone 11B, PNL6, Aga2-HA-X-MYC, Plasmid Ctrl, Neg Ctrl",−
same,Anti-CA-IX Ab binding intensity (normalized on CA-IX_MYC expression on cells),"hCA-IX ECD fragments; Native CA-IX protein, clone 12B, PNL200, CA9-Aga2-MYC, fragment 1, aa 52-111, PG",−
same,Anti-CA-IX Ab binding intensity (normalized on CA-IX_MYC expression on cells),"hCA-IX ECD fragments; Native CA-IX protein, clone 13A, PNL200, CA9-Aga2-MYC, fragment 2, aa 38-136, +PG+",−
same,Anti-CA-IX Ab binding intensity (normalized on CA-IX_MYC expression on cells),"hCA-IX ECD fragments; Native CA-IX protein, clone 14A, PNL200, CA9-Aga2-MYC, fragment 3, aa 1-136, SP+PG+",−
same,Anti-CA-IX Ab binding intensity (normalized on CA-IX_MYC expression on cells),"hCA-IX ECD fragments; Native CA-IX protein, clone 22A, PNL200, X-Aga2-MYC, Plasmid Ctrl, Neg Ctrl",−
same,Western blot binding to rhCA-IX ECD,rhCA-IX ECD [5],do not detect rhCA-IX ECD; also recorded: failed to bind
same,internalization,SK-RC-52 cells,internalize in a CA-IX specific manner
same,binding to cell surface hCA-IX by flow cytometry,[6],virtually no binding was detected
